Data on two molecules can be found in patent WO2022196697A1 (dated 2022).

The target of experiment [1] is T1, HER2 immunoprecipitated from the membrane fraction of HER2-type breast cancer cells (HER2 solution) (human, UniProt P04626 23-1255, glycosylated; also tested after PNGase F treatment).
T1 construct: Not fractionated by lectin; also called breast cancer cell-derived HER2; unfractionated HER2
The experiment in a line: lectin array with immunoprecipitated HER2, with and without PNGase F; confirmed by Western and lectin blotting.

The target of experiment [2] is T2, HER2 immunoprecipitated from the membrane fraction of cardiomyocytes (human, UniProt P04626 23-1255).
T2 construct: also called cardiomyocyte-derived HER2; myocardial cell-derived HER2
The experiment in a line: lectin blot of immunoprecipitated HER2 after electrophoresis (legend of Fig. 3).

B1: AOL (Aspergillus oryzae lectin) (other, UniProt Q2UNX8 1-311, looked up)
chain: MSTPGAQEVLFRTGIAAVNSTNHLRVYFQDSHGSIRESLYESGWANGTAKNVIAKAKLGTPLAATSKELKNIRVYSLTEDNVLQEAAYDSGSGWYNGALAGAKFTVAPYSRIGSVFLAGTNALQLRIYAQKTDNTIQEYMWNGDGWKEGTNLGVALPGTGIGVTCWRYTDYDGPSIRVWFQTDNLKLVQRAYDPHTGWYKELTTIFDKAPPRCAIAATNFNPGKSSIYMRIYFVNSDNTIWQVCWDHGQGYHDKRTITPVIQGSEIAIISWEGPELRLYFQNGTYVSAISEWTWGKAHGSQLGRRALPPAE
notes: also called biotinylated AOL
For B1, the binding result in experiment [1] and in experiment [2] was “binds” in each case.

B2: AAL (Aleuria aurantia lectin) (other, UniProt P18891 2-313, looked up)
chain: PTEFLYTSKIAAISWAATGGRQQRVYFQDLNGKIREAQRGGDNPWTGGSSQNVIGEAKLFSPLAAVTWKSAQGIQIRVYCVNKDNILSEFVYDGSKWITGQLGSVGVKVGSNSKLAALQWGGSESAPPNIRVYYQKSNGSGSSIHEYVWSGKWTAGASFGSTVPGTGIGATAIGPGRLRIYYQATDNKIREHCWDSNSWYVGGFSASASAGVSIAAISWGSTPNIRVYWQKGREELYEAAYGGSWNTPGQIKDASRPTPSLPDTFIAANSSGNIDISVFFQASGVSLQQWQWISGKGWSIGAVVPTGTPAGW
notes: also called AAL lectin
Consider B2, for which the binding result in experiment [1] and in experiment [2] was “binds” in each case.
